Reference: the PETadex activity labels
Changes are numbered by the printed parent chain.

Legend:
[1] = substrate: p-NP-C4
[2] = substrate: pNP-C6; settings: pH 8; 30 °C
[3] = Proxy for plastic degradation [Weight/mass loss]; settings: pH 8
[4] = substrate: PET; experiment: Proxy for plastic degradation [Weight/mass loss]; settings: pH 8
[5] = Proxy for plastic degradation [HPLC-UV] (µmol); settings: pH 7
[6] = substrate: PET; experiment: Proxy for plastic degradation [Absorbance (nm)]; settings: pH 8.5
[7] = substrate: PBSA; experiment: Proxy for plastic degradation [kcat/Km (catalytic efficiency)] (mM⁻¹s⁻¹); settings: pH 8.2
[8] = pH 7.2, part of the chain shown

B1: unnamed (protein)
chain: MEMLEEHRCFEGWQQRWRHDSSTLNCPMTFSIFLPPPRDHTPPPVLYWLSGLTCNDENFTTKAGAQRVAAELGIVLVMPDTSPRGEKVANDDGYDLGQGAGFYLNATQPPWATHYRMYDYLRDELPALVQSQFNVSDRCAISGHSMGGHGALIMALKNPGKYTSVSAFAPIVNPCSVPWGIKAFSSYLGEDKNAWLEWDSCALMYASNAQDAIPTLIDQGDNDQFLADQLQPAVLAEAARQKAWPMTLRIQPGYDHSYYFIASFIEDHLRFHAQYLLK
Km ([1]; pH 8, 37 °C): 700 µM
kcat ([1]; pH 8, 37 °C): 0.36 s⁻¹
kcat/Km ([1]; pH 8, 37 °C): 514 M⁻¹ s⁻¹

B2: unnamed (protein)
chain: MRALLLSGCLALVLLTQQAAAQTLLVVGDSISAALGLDTSQGWVALLQKRLADEGYDYRVVNASISGDTSAGGLARLPALLAEEKPALVVIELGGNDGLRGMAPAQLQQNLASMAQKARAEGAKVLLLGIQLPPNYGPRYIEAFSRVYGAVAAQEKTALVPFFLEGVGGVQGMMQADGIHPALAAQPRLLENVWPTLKPLL
Km [1, 8]: 1000 µM
kcat [1, 8]: 12 s⁻¹
kcat/Km [1, 8]: 12000 M⁻¹ s⁻¹

B3: unnamed (protein)
chain: MPPHAARPGPAQNRRGRAMAVITPRRERSSLLSRALRFTAAAATALVTAVSLAAPAHAANPYERGPNPTDALLEARSGPFSVSEERASRFGADGFGGGTIYYPRENNTYGAVAISPGYTGTQASVAWLGERIASHGFVVITIDTNTTLDQPDSRARQLNAALDYMINDASSAVRSRIDSSRLAVMGHSMGGGGTLRLASQRPDLKAAIPLTPWHLNKNWSSVRVPTLIIGADLDTIAPVLTHARPFYNSLPTSISKAYLELDGATHFAPNIPNKIIGKYSVAWLKRFVDNDTRYTQFLCPGPRDGLFGEVEEYRSTCPF
Km ([1]; pH 8, 60 °C): 673 µM
kcat ([1]; pH 8, 60 °C): 483 s⁻¹
kcat/Km ([1]; pH 8, 60 °C): 718000 M⁻¹ s⁻¹

B4: unnamed (protein)
chain: MKKIYAVALFFLATSFAPNIIFAQCGDVTIESLTNPGPYEVATLTEADGLRNGPDYQGATVYYPTNATPPFASIAIVPGFTALPSSVEEWGPFYASHGIVTIIIGTNSLFDFPEERAVALIDALETMRQENTRSSSPLENQLDVDKFAVSGWSMGGGGAQRAAVLDNTIKGVVALCPWLPNASLNHDSPVLIFSGENDPTAPPAQHADLHYAATPNTTNKLLFEIENGNHSVANTPNGGNGAVGKIALSWLKLYVDENDCYCPLLTESLLVDPPAASKVLSSFECELLSVPDNSFAISVYPNPTHDFVNINSTNPVHFEVYSALGQRLLSGELTQSEKQIDFSNFAKGLYYVRLGNETVKIVRN
Km [2]: 1370 µM
kcat [2]: 19.1 s⁻¹
kcat/Km [2]: 13900 M⁻¹ s⁻¹

B5: unnamed (protein)
chain: MRKLYLFLFLTLISPISISIFHAQCTGATVESLTNPGPYTVATLSEADGVRNGPKYAGSTIYYPTNATPPYASIAIVPGFTAAPSSVQEWGPFYASHGIVAIIIGTNSLYDQPEARALALLDALETIKQENGRATSPLIGKLDVTKLAVSGWSMGGGGAQRAAVLDNTISAVVALCPYLTSPQLNHTVPVLIFSGQSDPTAPPSQHANVHYNTTPGTTNKLLFEVKNGNHSVANSPTGGGGAVGKLALSWLKIYLEKNDCYCSVLATAIVNSTTVSSKISQSYQCNNALGVVDSKTRFNLYPNPTKDFVQVNVREMASYQLSSSTGQIVLKGIVTSSKNQIDLSKLPAGVYYLQINGETIKVIKKQ
Km [2]: 300 µM
kcat [2]: 8.9 s⁻¹
kcat/Km [2]: 29700 M⁻¹ s⁻¹

B6: unnamed (protein)
chain: MRLHRLRARLSAVACGLLLLLVRGQGQDSASPIRTTHTGQVLGSLVHVKGANAGVQTFLGIPFAKPPLGPLRFAPPEPPESWSGVRDGTTHPAMCLQDLTAVESEFLSQFNMTFPSDSMSEDCLYLSIYTPAHSHEGSNLPVMVWIHGGALVFGMASLYDGSMLAALENVVVVIIQYRLGVLGFFSTGDKHATGNWGYLDQVAALRWVQQNIAHFGGNPDRVTIFGESAGGTSVSSLVVSPISQGLFHGAIMESGVALLPGLIASSADVISTVVANLSACDQVDSEALVGCLRGKSKEEILAINKPFKMIPGVVDGVFLPRHPQELLASADFQPVPSIVGVNNNEFGWLIPKVMRIYDTQKEMDREASQAALQKMLTLLMLPPTFGDLLREEYIGDNGDPQTLQAQFQEMMADSMFVIPALQVAHFQCSRAPVYFYEFQHQPSWLKNIRPPHMKADHGDELPFVFRSFFGGNYIKFTEEEEQLSRKMMKYWANFARNGNPNGEGLPHWPLFDQEEQYLQLNLQPAVGRALKAHRLQFWKKALPQKIQELEEPEERHTEL
Km ([1]; pH 8, 37 °C): 31 µM
kcat ([1]; pH 8, 37 °C): 70 s⁻¹
kcat/Km ([1]; pH 8, 37 °C): 2.26e+06 M⁻¹ s⁻¹

B7: unnamed (protein)
chain: MDGVLWRVRTAALMAALLALAAWALVWASPSVEAQSNPYQRGPNPTRSALTADGPFSVATYTVSRLSVSGFGGGVIYYPTGTSLTFGGIAMSPGYTADASSLAWLGRRLASHGFVVLVINTNSRFDYPDSRASQLSAALNYLRTSSPSAVRARLDANRLAVAGHSMGGGGTLRIAEQNPSLKAAVPLTPWHTDKTFNTSVPVLIVGAEADTVAPVSQHAIPFYQNLPSTTPKVYVELDNASHFAPNSNNAAISVYTISWMKLWVDNDTRYRQFLANVNDPALSDFRTNNRHAQ
Km ([1]; pH 8, 30 °C): 250 µM
kcat ([1]; pH 8, 30 °C): 342 s⁻¹
kcat/Km ([1]; pH 8, 30 °C): 1.37e+06 M⁻¹ s⁻¹
Km ([1]; pH 8, 50 °C): 180 µM
kcat ([1]; pH 8, 50 °C): 196 s⁻¹
kcat/Km ([1]; pH 8, 50 °C): 1.09e+06 M⁻¹ s⁻¹
Km ([1]; pH 8, 70 °C): 190 µM
kcat ([1]; pH 8, 70 °C): 49 s⁻¹
kcat/Km ([1]; pH 8, 70 °C): 258000 M⁻¹ s⁻¹

B8: unnamed (protein)
chain: B7 chain with A275C, A292C
Proxy for plastic degradation [3]: 9 mg
Proxy for plastic degradation [4]: 1.5 mg

B9: unnamed (protein)
chain: MANPYERGPNPTDALLEASSGPFSVSEENVSRLSASGFGGGTIYYPRENNTYGAVAISPGYTGTEASIAWLGGRIASHGFVVITIDTITTLDQPDSRAEQLNAALNHMINRASSTVRSRIDSSRLAVMGHSMGGGGTPRLASQRPDLKAAIPLTPWHLNKNRSSVTVPTLIIGADLDTIAPVATHAKPFYNSLPSSISKAYLELDGATHFAPNIPNKIIGKYSVAWLKRFVDNDTRYTQFLCPGPRDGLFGEVEEYCSTCPF
Proxy for plastic degradation [5]: 0.6

B10: unnamed (protein)
chain: MLAVWDDTLAHPVRGRDRELATLTGLLDNTSGRRGTGMVVVGAPGTGKTTLLNALVEHAEGFQVLWAEGSAAESDVRFAGVEQLLRPLESLVSLLPDDRGRALRPVWGLPADDEGQVGSLAVPAAVSALLGLAARRQPVLCCVDSAHLLDSASLSALAFAARRAHHAGVVFVFAVDCTADTEVDTETSVWGELPRLRLGRLDDEAAHALLRDRLGASLPHDLADSLLDVGHGNPLALVELAESLTPEHLCGRAAPPSSPPPEGRLCRTLGHRLSALSEGAREVVALAGISEGLDEQLTCRVLPHHRSTLAEAVRSGLVVLDGDTVRTAADTVPSALLAALTPQDIVQAHHRMAEAAEAVGDRDRAVWHRAAIAMAPDPALVADLDDIAERARAAAAHATAAAASERAAALTSDTKERARRLVAAATDHWASGRPQRARTALRLAAPLSDSVLGARVSRLAGEIELRRGDPSVAATKLISTARQLASTHRTLAASALMLAGEASFVAGDNARYCLTAKDAALLCGPEEWPATRVVREHFTAMSATFRGEHSAAAAPLRSLVELGETTPDPTAKTLASQAAFTLGDAERSRDLALQAVVCARARGDESGVPWALVYAALSALLSGQLSAASTTALEGLQVARSLGQSNSAVDHVTVLAMLAALQGDEETALQRLQAANTELAERGLGRPSALATWAAACVDLAHDRPAEAFDRFRRMTVGRSRHCVPLRVMAVPHFVEAAVRCGEKEVARRSLVTFEHWANTTGGTARVALAHRCHALLAEQDGEAQERFTEAVRLHREADAPYDLAVTQLLYASHLRRSRRPKQARELLREAVQLFDDLGATHWVERASQELRACGHPGRGKPHLSRGLSPQQERIAQLVADGATNKEIATQLFISHRTVDHHLRNIFAKLDVRSRVQLAALFR
Proxy for plastic degradation [6]: 12.5 mM
Proxy for plastic degradation [7]: 308

B11: unnamed (protein)
chain: MWLRAFILATLSASAAWGHPSSPPVVDTVHGKVLGKFVSLEGFAQPVAIFLGIPFAKPPLGPLRFTPPQPAEPWSFVKNATSYPPMCTQDPKAGQLLSELFTNRKENIPLKLSEDCLYLNIYTPADLTKKNRLPVMVWIHGGGLMVGAASTYDGLALAAHENVVVVTIQYRLGIWGFFSTGDEHSRGNWGHLDQVAALRWVQDNIASFGGNPGSVTIFGESAGGESVSVLVLSPLAKNLFHRAISESGVALTSVLVKKGDVKPLAEQIAITAGCKTTTSAVMVHCLRQKTEEELLETTLKMKFLSLDLQGDPRESQPLLGTVIDGMLLLKTPEELQAERNFHTVPYMVGINKQEFGWLIPMQLMSYPLSEGQLDQKTAMSLLWKSYPLVCIAKELIPEATEKYLGGTDDTVKKKDLFLDLIADVMFGVPSVIVARNHRDAGAPTYMYEFQYRPSFSSDMKPKTVIGDHGDELFSVFGAPFLKEGASEEEIRLSKMVMKFWANFARNGNPNGEGLPHWPEYNQKEGYLQIGANTQAAQKLKDKEVAFWTNLFAKKAVEKPPQTEHIEL
Km ([1]; pH 8, 37 °C): 27 µM
kcat ([1]; pH 8, 37 °C): 17 s⁻¹
kcat/Km ([1]; pH 8, 37 °C): 630000 M⁻¹ s⁻¹
